Data as given in the supplement of paper PMC10126150.
± gives the standard deviation of the averaged measurements.

Each sequence was assayed on ATP (assay: switch fluorescence ratio, 500 uM ATP over buffer (Cy3 cluster intensity, sum of 5 cycles each) (fold (ratio)); higher = stronger signal-on switching upon ATP binding; sequences stand for … in TCGTCGGCAGCGTCAGATGTGTATAAGAGACAGTTTTTTTTTTTTTTTTTTTTTTTTT…TC). Details: aptamer strand: ATP DNA aptamer (quencher-CACCTGGGGGAGTATTGCGGAGGAAGG + anchor), 100 nM annealed; ATP concentration: 500 uM.
Outline: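 Imaging in selection buffer was followed by imaging after 15 min with 500 uM ATP at 22 °C, for Cy3-labelled switching-strand clusters annealed to 100 nM quencher-labelled ATP aptamer on a modified Illumina MiSeq flow-cell. Five of these buffer/ATP cycles ran, separated by NaOH stripping and re-annealing. The fluorescence ratio per cluster is summed target-cycle over summed buffer-cycle Cy3 intensity, averaged per switch-domain sequence; clusters outside 100-1000 RFU were removed.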
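Note: ATP exposure 15 min at 22 °C before imaging.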

Sequence | switch fluorescence ratio
TACTACCTGG | 1.3 ± 0.25
TACTATACGT | 1.276 ± 0.007
TACTATGATT | 1.04 ± 0.018
TACTATTATC | 1.0537 ± 0.00026
TACTCAGTAT | 1.0208 ± 0.00084
TACTCATTGC | 1.03 ± 0.067
TACTCGAAAC | 1.8 ± 0.97
TACTCGGCCG | 1.02 ± 0.035
TACTCGGCTC | 1.66 ± 0.11
TACTCGGTTT | 0.98 ± 0.014
TACTCTGTGT | 1.01 ± 0.014
TACTGAGACA | 1.074 ± 0.0066
TACTGGAGGC | 1.02 ± 0.043
TACTGTCTTG | 0.97 ± 0.014
TACTTACGAT | 1.37 ± 0.065
TACTTCATCA | 1.03 ± 0.02
TACTTGGCCG | 1.01 ± 0.052
TACTTGTAAT | 1.02 ± 0.055
TACTTGTGTA | 1.02 ± 0.014
TACTTTTGAC | 1.04 ± 0.011
TAGAAAAATT | 0.993 ± 0.015
TAGAAACGGG | 1.02 ± 0.031
TAGAAAGATT | 1.02 ± 0.016
TAGAAATCGG | 1.02 ± 0.015
TAGAAATTAA | 0.977 ± 0.019

Sequence | switch fluorescence ratio
TAGAAATTCG | 1.28 ± 0.5
TAGAACAACT | 1.21 ± 0.34
TAGAACCTCG | 1.02 ± 0.057
TAGAACTTCG | 1.014 ± 0.0077
TAGAAGGGAA | 1.03 ± 0.063
TAGAAGTATT | 1.01 ± 0.027
TAGAAGTGGT | 0.9963 ± 0.0084
TAGAATAGGT | 0.978 ± 0.011
TAGAATAGTC | 0.974 ± 0.01
TAGAATATAG | 0.991 ± 0.0011
TAGAATCGCT | 1 ± 0.049
TAGAATGTTT | 1.02 ± 0.012
TAGAATTGAG | 0.984 ± 0.022
TAGAATTGTG | 1.21 ± 0.33
TAGACAATTT | 1 ± 0.00074
TAGACAGCCA | 1.02 ± 0.041
TAGACCTTAA | 1.09 ± 0.029
TAGACGTTGG | 1.02 ± 0.014
TAGAGAATAT | 0.992 ± 0.026
TAGAGACCTG | 1 ± 0.071
TAGAGAGCTT | 0.986 ± 0.036
TAGAGAGGGC | 1.011 ± 0.0093
TAGAGATGGG | 1.02 ± 0.028
TAGAGATTAG | 1 ± 0.038
TAGAGCGGGA | 1.008 ± 0.0087

Sequence | switch fluorescence ratio
TAGAGCGTAT | 1 ± 0.033
TAGAGCTAC | 1.17 ± 0.049
TAGAGGAAGC | 1 ± 0.011
TAGAGGACGA | 1.04 ± 0.063
TAGAGGAGCT | 1 ± 0.038
TAGAGGCGGG | 0.981 ± 0.025
TAGAGGGGAG | 1.02 ± 0.022
TAGAGGGTAC | 1.19 ± 0.24
TAGAGGTG | 1.11 ± 0.016
TAGAGTATCT | 0.999 ± 0.027
TAGATAGTTT | 0.981 ± 0.029
TAGATCTGGG | 1.002 ± 0.0072
TAGATGAGGC | 1.01 ± 0.061
TAGATGCAGT | 1.04 ± 0.042
TAGATTTATT | 0.995 ± 0.028
TAGATTTGAT | 0.9664 ± 0.0028
TAGATTTGTA | 1.01 ± 0.021
TAGCACGGCA | 1.06 ± 0.029
TAGCACTGAG | 1.05 ± 0.043
TAGCAGGTGG | 1.15 ± 0.14
TAGCCGGCGT | 1.01 ± 0.013
TAGCCGGGAC | 1.25 ± 0.26
TAGCCGGTCG | 0.9846 ± 0.0023
TAGCCGTCTG | 1.04 ± 0.039
TAGCGATTAG | 1.01 ± 0.036

Sequence | switch fluorescence ratio
TAGCGGTTCG | 1.01 ± 0.034
TAGCGGTTTC | 0.9746 ± 0.005
TAGCGTGTTG | 1.02 ± 0.031
TAGCTCCGAC | 1.399 ± 0.0031
TAGCTGAGGA | 1.01 ± 0.032
TAGCTGCATG | 1.01 ± 0.017
TAGGAACGAG | 1 ± 0.024
TAGGAAGGTA | 1.01 ± 0.018
TAGGAATTTT | 0.984 ± 0.016
TAGGACGAGG | 1.02 ± 0.021
TAGGAGAAGG | 1.04 ± 0.036
TAGGAGAGTT | 0.994 ± 0.036
TAGGAGATTT | 0.998 ± 0.03
TAGGAGGGGG | 0.995 ± 0.04
TAGGATATGG | 1 ± 0.017
TAGGATCTGG | 0.995 ± 0.027
TAGGATGGTG | 1.03 ± 0.11
TAGGATGTCA | 1.01 ± 0.027
TAGGATTCGA | 0.964 ± 0.016
TAGGCACGCG | 1.027 ± 0.01
TAGGCGGGGT | 0.977 ± 0.05
TAGGCGTTGG | 0.972 ± 0.033
TAGGCTGGGT | 0.992 ± 0.014
TAGGGAAAGT | 0.9607 ± 0.0022
TAGGGAACGC | 1.02 ± 0.011
